For this assay, the target named is far-red light-acclimated photosystem I (FRL-PSI) complex of Synechococcus sp. PCC 7335, trimeric (Synechococcus sp. PCC 7335 (endogenous in Synechococcus 7335 cells)). Kind of assay: cryo-EM structure; trimeric FRL-PSI isolated whole from FRL-grown Synechococcus 7335 cells (1% β-DM, two sucrose gradients, PIB: 50 mM MES pH 6.5, 15 mM CaCl2, 10 mM MgCl2); Fd not added; ~3 mg Chl/ml, plunge-frozen at 4 °C; C3 symmetry, 2.91 Å.

On to “far-red light-acclimated photosystem I (FRL-PSI) complex of Synechococcus sp. PCC 7335, trimeric”, for which the stoichiometry N amounted to 3.
For the substance “ferredoxin PetF1 (soluble [2Fe-2S] ferredoxin) of Synechococcus sp. PCC 7335 (natural protein)”, the occupancy is 10%.

Broadly, the stoichiometry N is a count of units in the complex or per binding partner.

The record behind these values is PMC8689207.
